Two substances from PMC6572189, “Functional Fragments of AIMP1-Derived Peptide (AdP) and Optimized Hydrosol for Their Topical Deposition by Box-Behnken Design” (Molecules, 2019) can be followed below.

Data set [1] concerns keratinocytes (HaCaT cells). The experiment in a line: Cytotoxicity test (CCK-8). The conditions noted are these: 10 or 100 μg/mL (up to 100 μg/mL), 24 h, CCK-8 assay, n = 3. The data set is classed as cell-based. Here is the method: (§1) Figure 2 Non-cytotoxicity and non-immunogenicity of FA-AdP and MI-AdP: (a) To test cytotoxicity of FA-AdP and MI-AdP, keratinocytes (HaCaT cells) were incubated with doxorubicin (Dox, 10 μM), AdP (100 μg/mL), FA-AdP (10 or 100 μg/mL), and MI-AdP (10 or 100 μg/mL). After 24 h incubation, cytotoxicity was determined by CCK-8 assay; (b) for the immunogenicity test, monocytes (THP-1 cells) were used. After 12 h incubation with LPS (50 ng/mL), AdP (100 μg/mL), FA-AdP (10 or 100 μg/mL), and MI-AdP (10 or 100 μg/mL), the TNF-α level was measured in cultured media by ELISA.
(§2) The safety of FA-AdP and MI-AdP was verified in terms of cytotoxicity and immunogenicity. To test the cytotoxicity of the peptides, keratinocytes (HaCaT; 3 × 10^3 cells/well) were seeded into 96-well plate and cultivated. Cells were incubated with doxorubicin (Dox, 10 μM), AdP (100 μg/mL), FA-AdP (10 or 100 μg/mL), or MI-AdP (10 or 100 μg/mL). After 24 h incubation, cytotoxicity was determined by CCK-8 assay (Dojindo) according to the manufacturer’s manual. The immunogenicity of the peptides was evaluated by performing TNF-α ELISA. THP-1 cells (5 × 10^4 cells/well) were seeded on a 24-well plate. Cells were pre-incubated with 1% FBS containing media for 6 h. […] TNF-α amount in conditioned media was assessed by human TNF-α ELISA kit (BD Bioscience, San Jose, CA, USA) in accordance with the manufacturer instructions. […]
For orientation: Tetrazolium dyes change colour on reduction, which living cells bring about.

The next data set concerns monocytes (THP-1 cells). The experiment in a line: Immunogenicity test (TNF-α ELISA). The data set is classed as cell-based, human. The conditions noted are these: 10 or 100 μg/mL, 12 h, TNF-α ELISA of cultured media, normalized to control, n = 3. Here is the method: as §1, §2
(ELISA stands for enzyme-linked immunosorbent assay.)

The subject of data set [2] is Foreskin fibroblasts (HFF-1). The experiment in a line: Collagen ELISA (procollagen type I in culture media). The data set is classed as cell-based. Particulars: Fr3 0.1 μg/mL versus EGF 1 μg/mL, HFF-1 foreskin fibroblasts, 24 h. Here is the method:
(§3) Figure 1 Fibroblast-activating (FA) and melanin-inhibiting (MI) domain mapping of AIMP1-derived peptide (AdP): (a) Foreskin fibroblasts were treated with EGF (1 μg/mL), AdP (0.1 μg/mL), and fragments of AdP (Fr1–Fr6; 0.1 μg/mL). After 24 h incubation, procollagen type I was determined in cultured media by ELISA; (b) after 48 h incubation, CCK8-assay was performed to monitor the proliferation of foreskin fibroblasts; (c) melanocytes, pre-treated with α-MSH (0.5 μM), were treated with albutin (At, 10 μM), AdP (1 μg/mL) and fragments of AdP (Fr1–Fr6, 1 μg/mL). After 48 h incubation, intracellular melanin was measured.
Foreskin fibroblast cells (HFF-1; 5 × 10^4 cells/well) were seeded at a 24-well culture plate. Before peptide treatment, cells were pre-incubated with serum-free DMEM media for 6 h. Cells were treated with AdP, hEGF (Sigma-Aldrich, St. Louis, MO, USA) and fragments of AdP for 24 h. After 24 h treatment, media were harvested for collagen ELISA assay. Procollagen type I in the culture media was determined by Procollagen type I ELISA kit (Takara, Kusatsu, Japan) in accordance with the manufacturer instructions. Procollagen type I amount in the media was normalized by the Procollagen type I amount of control group.

Data set [3] relates to Foreskin fibroblasts (HFF-1). Kind of data set: Fibroblast proliferation assay (CCK-8). The data set is classed as cell-based. Particulars: Fr3 0.1 μg/mL versus EGF 1 μg/mL; HFF-1 foreskin fibroblasts, 48 h, CCK-8 assay. Here is the method: as §3
Foreskin fibroblast cells (HFF-1; 3 × 10^3 cells/well) were seeded into 96-well plate and cultivated. Cells were replaced with serum-free media and then treated with AdP, hEGF, and fragments of AdP for 48 h. Cell proliferation was determined CCK-8 assay (Dojindo, Kumamoto, Japan) in accordance with the manufacturer instructions. Proliferation was normalized by the proliferation of control group.

The next data set relates to Melanocytes (B16F10). The experiment in a line: Measurement of intracellular melanin in α-MSH induced melanocytes. The data set is classed as cell-based. The conditions noted are these: α-MSH 0.5 μM, 48 h. As for the experimental part:
as §3
Melanocytes (B16F10; 1 × 10^5 cells/well) were seeded into 6-well plate and cultivated. To induce melanin synthesis, α-MSH (0.5 μM), melanin inducer, was used. AdP and fragments of AdP were treated with α-MSH (0.5 μM) for 48 h. Intracellular melanin and tyrosinase activity were monitored as previously reported. Briefly, melanocytes (1 × 10^5 cells,) were lysed with 1 N NaOH at 70 °C for 1 h. Intracellular melanin was determined in lysed samples by 490 nm wavelength absorbance using microplate reader (Synergy 2, BioTek, Winooski, VM, USA).

Consider “Fr3: 14–28 residue fragment of AIMP1; fibroblast-activating domain of AdP (KGAEADQIIEYLKQQ; UniProt Q12904 14-28, looked up, fragment)”, for which, in data set [1], the cytotoxicity in keratinocytes entry is “no cytotoxicity”. Besides, the “TNF-α level compared with that of the control group” value in the data set with monocytes (THP-1 cells) was “no significant difference”. For the same substance, the “collagen induction, more potent than EGF” value in data set [2] was found to be 15%. Also, the “fibroblast proliferation, more potent than EGF” value in data set [3] stood at 10%.

With “Fr4: 18–32 residue fragment of AIMP1; melanocyte-inhibiting domain of AdP (ADQIIEYLKQQVSLL; UniProt Q12904 18-32, looked up, fragment)”, the cytotoxicity in keratinocytes result in data set [1] is “no cytotoxicity”. In addition, in the data set on Melanocytes (B16F10) (Fr4 1 μg/mL versus albutin 10 μM), the “inhibition effect on melanin synthesis, higher than albutin” value turned out to be 35%. Further, the “inhibition of melanin synthesis induced by α-MSH, compared with AdP” value in the data set on Melanocytes (B16F10) (1 μg/mL, intracellular melanin by absorbance at 490 nm, mean n = 3, versus AdP 1 μg/mL) was “comparable inhibition”. Besides, the “TNF-α level compared with that of the control group” value in the data set with monocytes (THP-1 cells) is given as “no significant difference”.
